Source: patent publication US20040086933A1 (Chugai, published 2004)

Legend:
[1] = target: temperature-sensitive p53 (pMSVp53Val135) (UniProt P02340); assay: cell-based or functional assay
GST = target: T1, GST (UniProt P08515 1-218 = GST); assay: GST pull-down with glutathione-Sepharose, anti-His Western blot (FIG. 9, Lanes 4 to 6)
T1 construct: also called glutathione S-transferase
Procedure: Different striamins conjugated to histidines were reacted with p53 conjugated to GST in vitro, and the reaction was immunoprecipitated with glutathione Sepharose beads, followed by Western blot analysis using anti-histidine-tag and anti-p53 antibodies (“GST-p53 pull” in the figure).
Each protein purified in step (1) (2 to 5 μg) was mixed with GST or GST-p53 (1 μg, Santa Cruz) in NP40-lysis buffer (500 μl). After two hours, glutathione-Sepharose beads (20 μl) were added to the suspension and rotated for mixing for one hour at 4° C. The beads were precipitated by centrifugation, washed three times with TBS and then boiled in SDS-sample buffer. Subsequently, SDS-PAGE was carried out for each sample, followed by detection of the respective striamins conjugated to the histidines by Western blotting using an anti-histidine-tag antibody. In addition, p53 was detected by Western blotting using anti-p53 antibody.

T1 sequence (P08515 whole entry): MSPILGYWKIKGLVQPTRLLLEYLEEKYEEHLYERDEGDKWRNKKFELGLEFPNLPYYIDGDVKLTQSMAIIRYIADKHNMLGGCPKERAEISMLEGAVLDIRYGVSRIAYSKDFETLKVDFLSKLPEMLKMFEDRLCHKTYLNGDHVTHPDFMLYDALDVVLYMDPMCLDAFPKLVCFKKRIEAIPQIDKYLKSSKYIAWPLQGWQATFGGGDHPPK

Row | Molecule | p53 activity (p53-responsive luciferase reporter PG-13luc in p53-/- MEF cells) [1] | β-gal positive cells (p53-responsive β-gal reporter pRGC fos-lacZ in microinjected p53-/- MEF cells) [1] | binding result (GST)
1 | striamin (full-length, untagged) | 4.6 fold | 5% | –
2 | full-length striamin with a histidine tag (pQE30/full-length striamin) (other, also called pQE30/striamin; His-tagged striamin; not shown: N-terminal His tag encoded by the pQE30 vector (Qiagen)) MKGLAGEWHQDSGLDIREKAEDFSLPWLLPRLMALVMQEEGRFRSDRNHGYLREWLRIQALTACLPSPLGRVHYAQCSPKQKGRLPRGWASLPSLSVLVRALRASNAFSLGNYYCCPWRGTRWAKGQPGEWARPRASSPSAHREGVAVT | – | – | no binding
3 | N-striamin with a histidine tag (pQE30/N-striamin) (other, not shown: N-terminal His tag encoded by the pQE30 vector (Qiagen)) MKGLAGEWHQDSGLDIREKAEDFSLPWLLPRLMALVMQEEGRFRSDRNHGYLREWLRIQALTACLPSPLGRVHYA | – | – | no binding
4 | C-striamin with a histidine tag (pQE30/C-striamin) (other, not shown: N-terminal His tag encoded by the pQE30 vector (Qiagen)) QCSPKQKGRLPRGWASLPSLSVLVRALRASNAFSLGNYYCCPWRGTRWAKGQPGEWARPRASSPSAHREGVAVT | – | – | no binding
